Experimental data published in patent US7390635 (CANCER RESEARCH INSTITUTE OF CONTRA COSTA, dated 2008).
Blank lines part the entries; values can stand above or below the binder they belong to.

What was measured:
[1] = target: T1, BA46 antigen of the human milk fat globule (HMFG) (human, UniProt Q08431 24-387, limits assumed); test: competition RIA on plate-bound HMFG; reciprocal of the concentration of unlabeled antibody giving 50% binding
T1 construct: also called 46 kDa HMFG antigen; human milk fat globule preparation
T1 sequence (looked up): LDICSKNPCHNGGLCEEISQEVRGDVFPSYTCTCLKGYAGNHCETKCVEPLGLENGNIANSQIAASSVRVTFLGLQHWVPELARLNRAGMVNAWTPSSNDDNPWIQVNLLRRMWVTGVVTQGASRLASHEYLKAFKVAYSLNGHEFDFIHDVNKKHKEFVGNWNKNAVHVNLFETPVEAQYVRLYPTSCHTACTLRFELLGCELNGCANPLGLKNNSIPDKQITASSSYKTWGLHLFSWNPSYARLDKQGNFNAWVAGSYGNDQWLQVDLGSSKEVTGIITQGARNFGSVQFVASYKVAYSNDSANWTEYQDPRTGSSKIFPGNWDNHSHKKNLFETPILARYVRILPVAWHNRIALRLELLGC
Method: The protocol for the assay was as follows.
Microtiter plates (Dynatech, Chantilly, Va.) were prepared with HMFG according to standard techniques (as described by Ceriani et al., in "Monoclonal Antibodies and Functional Cell Lines" (T. J. McKern et al. eds.), pp. 398-402, New York, Plenum Press, 1984). To each well was added 25 µl ^125I-Mc3 in RIA buffer (10% bovine calf serum, 0.3% TRITON™ X-100, 0.05% sodium azide pH 7.4, in phosphate buffered saline), and competed with 25 µl of either unlabeled murine antibody or murine-human chimeric antibody in RIA buffer at final concentrations in the nanomolar range.
Iodinations were performed with ^125I (17 Ci/mg, Nordion International Inc., Kanata, Ontario, Canada). 50 µg monoclonal antibody Mc3 was labeled (at a specific activity of ~10 mCi/mg) using the chloramine T method as described by Ceriani, R. L., and Blank, E. W. (1988) *Cancer Res.* 48: 4664-4672.

[2] = target: T1, BA46 antigen of the human milk fat …; test: affinity as summarised in the description; same assay as Example 10
Method: (§1) Binding studies were conducted as outlined earlier. Briefly, microliter plates were prepared using successive layers of methylated BSA (bovine serum albumin), glutaraldehyde, and a preparation of delipidated HMFG (Ceriani R. L. et al. (1977) PNAS (USA) 74:582-586). Each well was coated with 100 ng of HMFG. Competition experiments were conducted by adding to each well a standard amount of ^125I-MuMc3 and an appropriate dilution of unlabeled MuMc3 or HuMc3 in RIA buffer (10% bovine calf serum, 0.3 TRITON X-100™), 0.05% sodium azide pH 7.4, in PBS). For the determination of affinity constants, each antibody was tested in competition against itself.

[3] = target: T1, BA46 antigen of the human milk fat …; test: competition RIA on plate-bound delipidated HMFG, each antibody tested against itself; reciprocal of the concentration giving 50% maximal binding
Method: as §1

- Ka [1]: 5e+08 M⁻¹
B1: murine-human chimeric Mc3 antibody (ChMc3) (antibody, V domains shown)
VH: EVQLQQSGPELVKPGASMKISCEASGYSFTGYTMHWVKQSHGMNLEWIGLINPYNGGTVYNQKFQDKATLTVDKSSGTAYMELLSLTSEDSAVYFCARRWRYTMDYWGQGTSVTVSS
VL: DIVMTQSHKFMSTSEGDWVSITCKASQDVSIGVAWYQQKPGQSPKLLIYSASSRYTGVPDRFSGSGSGTDFTFTISSVQAEDLAVYYCQQHYTSPFTFGSGTNLEIK
notes: also called Chimeric antibody

- Ka [1]: 3e+08 M⁻¹
B2: murine monoclonal antibody Mc3 (antibody, V domains shown)
VH: B1 VH
VL: B1 VL
notes: Whole murine monoclonal antibody from the Mc3 hybridoma, kappa light chain; As the tracer it was labelled with 125I by the chloramine T method; also called MuMc3; Mc3 murine antibody

- Ka [2]: 6.2e+08 M⁻¹
- Ka [3]: 6e+08 M⁻¹
B3: humanized Mc3 antibody (HuMc3) (antibody, human IgG1, V domains shown)
VH: EVQLVQSGAEVKKPGASVKVSCKASGYSFTGYTMHWVKQSPGMNLEWIGLINPYNGGTVYNQKFQDKATLTVDKSTSTAYMELSSLRSEDTAVYFCARRWRYTMDYWGQGTLVTVSS
VL: DIVMTQSPDSLAVSLGERATITCKASQDVSIGVAWYQQKPGQSPKLLIYSASSRYTGVPDRFSGSGSGTDFTLTISSLQAEDVAVYYCQQHYTSPFTFGSGTKVEIK
notes: Humanized variable regions cloned into pAH4604 (human gamma 1 constant region) and pAG4622 (human kappa constant region), so a human IgG1 kappa; also called HuMc3v2
